This passage reports Kd results from doi:10.1101/2024.02.04.578783.

One test has as its target BCL2 D103E-mCherry (UniProt P10415). Kind of test: single-molecule pull-down and co-IP.
The next test deals with BCL2-mCherry (wild type) (UniProt P10415). The test can be described thus: single-molecule pull-down and co-IP.

pKd: −log10 of the molar value.

By pKd is commonly meant the Kd on a negative log10 scale, so that one unit is a factor of ten. For “BH3 domain of BIM, eGFP-labeled (domain or fragment)”, the pKd is 7.49 with BCL2 D103E-mCherry and 7.27 with BCL2-mCherry (wild type).

“BIMEL, TMD-truncated, eGFP-labeled (domain or fragment)” showed a pKd with BCL2-mCherry (wild type) of 7.56.

Consider “BIML, TMD-truncated, eGFP-labeled (domain or fragment)”, for which the pKd with BCL2-mCherry (wild type) is 7.20.

In the test with BCL2-mCherry (wild type), “BIMS, TMD-truncated, eGFP-labeled (domain or fragment)” had a pKd of 7.80.
